# Measured values published in US20240158517A1 (HIFIBIO HK, published 2024).
# Where two headings read alike, the source gives them in different places.
# T1: human CXCR5 (human, UniProt P32302 1-372)
# T1 construct: whole, on cells; Always presented on cells; one entry is used for all cell lines; also called hCXCR5; C-X-C chemokine receptor type 5
# T1 sequence (looked up): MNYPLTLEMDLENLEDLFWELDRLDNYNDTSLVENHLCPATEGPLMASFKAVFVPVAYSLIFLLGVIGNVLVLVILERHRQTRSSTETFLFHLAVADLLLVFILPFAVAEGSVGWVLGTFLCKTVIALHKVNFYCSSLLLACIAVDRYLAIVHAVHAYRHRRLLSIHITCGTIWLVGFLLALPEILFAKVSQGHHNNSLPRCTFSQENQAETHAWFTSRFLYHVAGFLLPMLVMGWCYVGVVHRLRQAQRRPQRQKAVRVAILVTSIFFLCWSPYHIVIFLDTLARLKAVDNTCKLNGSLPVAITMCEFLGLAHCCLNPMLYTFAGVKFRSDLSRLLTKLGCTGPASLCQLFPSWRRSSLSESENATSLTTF
# T2: human CXCR3 (human, UniProt P49682 1-368, limits assumed)
# T2 construct: also called hCXCR3
# T2 sequence (looked up): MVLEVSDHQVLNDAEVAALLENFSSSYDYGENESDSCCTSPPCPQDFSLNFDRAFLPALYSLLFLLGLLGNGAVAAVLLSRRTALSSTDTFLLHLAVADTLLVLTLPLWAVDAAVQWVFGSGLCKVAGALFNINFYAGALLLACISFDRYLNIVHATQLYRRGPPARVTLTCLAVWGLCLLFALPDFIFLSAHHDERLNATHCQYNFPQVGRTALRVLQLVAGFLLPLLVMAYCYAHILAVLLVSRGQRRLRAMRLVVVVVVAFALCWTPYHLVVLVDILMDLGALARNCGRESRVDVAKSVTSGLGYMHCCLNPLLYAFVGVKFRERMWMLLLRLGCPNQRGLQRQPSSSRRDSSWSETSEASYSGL
# T3: murine CXCR5 (mouse, UniProt Q04683 1-374)
# T3 construct: whole, on cells; also called mouse CXCR5 ortholog
# T3 sequence (looked up): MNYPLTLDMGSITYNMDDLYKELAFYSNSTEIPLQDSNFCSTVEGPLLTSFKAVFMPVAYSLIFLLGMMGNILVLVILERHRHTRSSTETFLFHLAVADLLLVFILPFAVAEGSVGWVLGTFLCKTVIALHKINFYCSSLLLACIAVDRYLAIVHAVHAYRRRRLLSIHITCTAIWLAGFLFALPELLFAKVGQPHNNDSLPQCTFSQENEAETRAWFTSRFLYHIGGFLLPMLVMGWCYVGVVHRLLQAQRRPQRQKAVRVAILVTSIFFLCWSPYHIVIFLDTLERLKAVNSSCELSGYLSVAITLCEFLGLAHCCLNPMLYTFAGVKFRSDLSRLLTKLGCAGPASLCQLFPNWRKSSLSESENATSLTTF
# T4: cynomolgus CXCR5 (cynomolgus monkey, UniProt G8F5K4 1-372)
# T4 construct: whole, on cells; also called monkey CXCR5 ortholog
# T4 sequence: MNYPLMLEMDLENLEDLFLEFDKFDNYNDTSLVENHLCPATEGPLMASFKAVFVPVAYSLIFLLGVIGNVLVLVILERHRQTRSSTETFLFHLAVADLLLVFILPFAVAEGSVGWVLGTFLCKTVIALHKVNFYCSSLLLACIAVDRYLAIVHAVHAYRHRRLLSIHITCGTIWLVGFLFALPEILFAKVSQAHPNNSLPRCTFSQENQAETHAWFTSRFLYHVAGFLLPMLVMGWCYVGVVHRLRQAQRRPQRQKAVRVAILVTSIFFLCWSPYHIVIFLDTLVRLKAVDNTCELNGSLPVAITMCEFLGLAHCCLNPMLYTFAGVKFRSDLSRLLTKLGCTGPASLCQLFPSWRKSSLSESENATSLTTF
# Tests used:
# CD16 = CD16 (UniProt P08637 17-254, limits assumed); assay: cell-based or functional assay
# CD16, sequence (P08637 17-254 limits assumed): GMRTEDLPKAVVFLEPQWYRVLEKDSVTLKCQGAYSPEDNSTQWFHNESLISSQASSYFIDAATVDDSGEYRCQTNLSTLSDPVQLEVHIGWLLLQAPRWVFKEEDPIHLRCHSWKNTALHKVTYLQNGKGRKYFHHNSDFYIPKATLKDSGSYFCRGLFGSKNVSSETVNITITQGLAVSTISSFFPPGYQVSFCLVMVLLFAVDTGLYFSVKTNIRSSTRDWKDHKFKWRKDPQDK
# human CXCR5 [1] = target: T1, human CXCR5; assay: binding to hCXCR5, Exp 1 (assay not given)
# human CXCR5 [2] = target: T1, human CXCR5; assay: binding to hCXCR5, Exp 2 (assay not given)
# human CXCR3 [3] = target: T2, human CXCR3; assay: flow cytometry (MFI) on hCXCR3
# murine CXCR5 [4] = target: T3, murine CXCR5; assay: flow cytometry on cells transiently transfected with murine CXCR5
# cynomolgus CXCR5 = target: T4, cynomolgus CXCR5; assay: flow cytometry on cells transiently transfected with cynomolgus CXCR5
# human CXCR5 [5] = target: T1, human CXCR5; assay: flow cytometry on an adherent stable cell line expressing hCXCR5, MFI normalized on the benchmark MFI
# Protocol: In order to test the binding capacity to CXCR5, six chimeric monoclonal antibodies were tested in binding assay using adherent stable cell line expressing the target antigen hCXCR5.
# human CXCR5 [6] = target: T1, human CXCR5; assay: flow cytometry on DX002 cells expressing CXCR5, MFI
# human CXCR5 [7] = target: T1, human CXCR5; assay: flow cytometry on CXCR5+ Raji cells, MFI
# human CXCR5 [8] = target: T1, human CXCR5; assay: binding to DX002 cells expressing CXCR5
# human CXCR5 [9] = target: T1, human CXCR5; assay: flow cytometry on adherent DX002 cells expressing CXCR5, MFI
# human CXCR5 [10] = target: T1, human CXCR5
# human CXCR5 [11] = target: T1, human CXCR5; assay: cell-based or functional assay
# human CXCR3 [12] = target: T2, human CXCR3; assay: specificity assay by flow cytometry
# murine CXCR5 [13] = target: T3, murine CXCR5; assay: flow cytometry, transiently transfected cells
binder,measurement,setting,value
"HFB2-4hz9-hG1DE (antibody, V domains shown, Humanized (VH3/VL1), human IgG1 constant region with S239D/I332E (hG1DE)) VH: QVQLQESGPGLVKPSETLSLTCTVSGFSLTSYGVSWVRQPPGKGLEWIGVIWGDGSTNYNPSLKSRVTISKDTSKNQVSLKLSSVTAADTAVYYCARVVYWGQGTLVTVSS VL: DIVMTQSPLSLPVTPGEPASISCRSSKSLLHSNGKTYLYWFLQKPGQSPQLLIYRMSNLASGVPDRFSGSGSGTDFTLKISRVEAEDVGVYYCMQHLEYPYTFGGGTKVEIK","ADCC activity, EC50",CD16,1 to 2 pM
same,EC50,human CXCR5 [1],1300 pM
same,EC50,human CXCR5 [2],1000 pM
"HFB2-1-hG1 (antibody, V domains shown, Mouse-human chimeric antibody: murine VH and VL on the human IgG1 constant region) VH: EVKLEESGGGLVQPGGSMKLSCVASGFTFSNYWMNWVRQSPEKGLEWVAQIRLKSDNYATHYTESVKGRFTISRDDSKSSVYLQMNNLRAEDTGIYYCTPPNFDYWGQGTTLTVSS VL: DIVMTQAAPSVTVTPGESVTISCRSTTSLLHRSGKHKFYWFLQRPGQSPQLLIYYVSNLASGVPDRFSGSGSGTDFTLRISRVEAEDFGVYYCMQSLEFPLTFGTGTKLEIK",binding result,human CXCR3 [3],no binding (tested: about 150 nM)
same,binding result,murine CXCR5 [4],no binding (tested: about 150 nM)
same,binding result,cynomolgus CXCR5,no binding (tested: about 150 nM)
same,EC50,human CXCR5 [5],481 pM
"afucosylated HFB2-4hz42-hG1 (antibody, V domains shown, afucosylated (no core fucose on the Fc N-glycan of the heavy chain), Afucosylated format of humanized HFB2-4hz42-hG1 (human IgG1); also called afu-HFB2-4hz42-hG1; Afu-HFB2-4hz42-hG1) VH: QVQLVQSGAEVKKPGASVKVSCKASGFSLTSYGVSWVRQAPGQGLEWMGVIWGDGSTNYAQKLQGRVTMTKDTSTSTAYMELRSLRSDDTAVYYCARVVYWGQGTLVTVSS VL: EIVMTQSPATLSVSPGERATLSCRSSKSLLHSNGKTYLYWFQQKPGQAPRLLIYRMSNLASGIPARFSGSGSGTEFTLTISSVQSEDVAVYYCMQHLEYPYTFGQGTKLEIK",EC50,human CXCR5 [6],820 pM
"HFB2-4hz42hG1 (antibody, V domains shown, Humanized, human IgG1 (hG1); also called HFB2-VH10VL6) VH: QVQLVQSGAEVKKPGASVKVSCKASGFSLTSYGVSWVRQAPGQGLEWMGVIWGDGSTNYAQKLQGRVTMTKDTSTSTAYMELRSLRSDDTAVYYCARVVYWGQGTLVTVSS VL: EIVMTQSPATLSVSPGERATLSCRSSKSLLHSNGKTYLYWFQQKPGQAPRLLIYRMSNLASGIPARFSGSGSGTEFTLTISSVQSEDVAVYYCMQHLEYPYTFGQGTKLEIK",EC50 (read off the curve),human CXCR5 [7],~300 pM
"HFB2-4hz42hG1DE (antibody, V domains shown, Humanized (VH10/VL6) in hG1DE format) VH: QVQLVQSGAEVKKPGASVKVSCKASGFSLTSYGVSWVRQAPGQGLEWMGVIWGDGSTNYAQKLQGRVTMTKDTSTSTAYMELRSLRSDDTAVYYCARVVYWGQGTLVTVSS VL: EIVMTQSPATLSVSPGERATLSCRSSKSLLHSNGKTYLYWFQQKPGQAPRLLIYRMSNLASGIPARFSGSGSGTEFTLTISSVQSEDVAVYYCMQHLEYPYTFGQGTKLEIK",EC50,human CXCR5 [8],171 pM
same,EC50,human CXCR5 [9],123 pM
"HFB2-3-hG1 (antibody, V domains shown, Mouse-human chimeric antibody, human IgG1 constant region) VH: QVQLKQSGPGLVQPSQSLSITCTVSGFSLTSYGVHWVRQSPGKGLEWLGVTWSGGRTDYNAAFISRLSINKDNSKSQVFFKMNSLQVNDTAIYYCARGGNYWGQGTSVTVSS VL: not shown",EC50,human CXCR5 [10],569 pM
same,binding result,human CXCR3 [3],no binding (tested: about 150 nM)
same,binding result,murine CXCR5 [4],no binding (tested: about 150 nM)
same,binding result,cynomolgus CXCR5,no binding (tested: about 150 nM)
"HFB2-2-hG1 (antibody, V domains shown, Mouse-human chimeric antibody, human IgG1 constant region) VH: EVQLVETGGGLVQPKGSLKLSCAASGFTFNTNAMNWVRQAPGKGLEWVARIRSKSNNYATHYVDSVKDRFTISRDDSQSMLYLQMNNLKTEDTAMYYCVSWDPFAYWGQGTLVTVSA VL: NIMMTQSPSSLAVSAGEKVTMSCKSSQSVLYSSNQKNYLAWYQQKPGQSPKLLIYWASTRASGVPDRFTGSGSGTDFTLTISSVQTEDLAVYYCHQYLSSWTFGGGAKLEIK",binding result,human CXCR3 [3],no binding (tested: about 150 nM)
same,binding result,murine CXCR5 [4],no binding (tested: about 150 nM)
same,binding result,cynomolgus CXCR5,no binding (tested: about 150 nM)
same,EC50,human CXCR5 [5],482 pM
"HFB2-4hG1DE (antibody, V domains shown, Chimeric HFB2-4 in the DE scaffold: human IgG1 constant region with S239D/I332E; also called HFB2-4DE) VH: QVQLKESGPGLVAPSQSLSITCTVSGFSLTSYGVSWVRQPPGKGLEWLGVIWGDGSTNYHSGLISRLSISKDNSKSQVFLKLNSLQSDDTATYYCARVVYWGQGTLVTVSA VL: DIVMTQAAPSVPVTPGESISISCRSSKSLLHSNGKTYLYWFLQRPGQSPQLLLYRMSNLASGVPDRFSGSGSGTAFTLRISRVEAEDVGVYYCMQHLEYPYTFGGGTKLEIK","ADCC lysis of Raji cells by primary NK cells, EC50",human CXCR5 [11],0.76 pM
same,"ADCC lysis of peripheral primary B cells by primary NK cells, EC50",human CXCR5 [11],0.00044 pM
same,EC50,human CXCR5 [8],186 pM
same,EC50,human CXCR5 [1],1000 pM
same,EC50,human CXCR5 [2],1300 pM
same,EC50,human CXCR5 [9],112 pM
"afucosylated HFB2-4hG1 (antibody, V domains shown, afucosylated (no core fucose on the Fc N-glycan of the heavy chain), Afucosylated format of the chimeric HFB2-4hG1 (human IgG1, no DE mutation); also called afu-HFB2-4hG1; AfuHFB2-4hG1) VH: QVQLKESGPGLVAPSQSLSITCTVSGFSLTSYGVSWVRQPPGKGLEWLGVIWGDGSTNYHSGLISRLSISKDNSKSQVFLKLNSLQSDDTATYYCARVVYWGQGTLVTVSA VL: DIVMTQAAPSVPVTPGESISISCRSSKSLLHSNGKTYLYWFLQRPGQSPQLLLYRMSNLASGVPDRFSGSGSGTAFTLRISRVEAEDVGVYYCMQHLEYPYTFGGGTKLEIK",EC50,human CXCR5 [6],810 pM
"HFB2-5-hG1 (antibody, V domains shown, Mouse-human chimeric antibody, human IgG1 constant region) VH: QVQLKESGPGLVAPSQSLSITCTVSGFSLTSYGVSWVRQPPGKGLEWLGVIWGDGSTNYHSTLISRLSISKDNSKSQVFLKLNSLQTDDTATYYCARVAYWGQGTLVTVSA VL: DIVMTQAAPSIPVTPGESVSISCRSSKSLLHSNGKTYLYWFLQRPGQSPQLLIYRMSNLASGVPDRFSGSGSGTAFTLRISRVEAEDVGVYYCMQHLEYPYTFGGGTKLEIK",binding result,human CXCR3 [12],no binding
same,binding result,murine CXCR5 [13],no binding
same,binding result,cynomolgus CXCR5,no binding (tested: about 150 nM)
same,EC50,human CXCR5 [5],3430 pM
